Here are results for 4 substances from article PMC6635533.

In assay [1] the target is RocA cytoplasmic domain (amino acids 226 to 451) with a C-terminal FLAG tag, expressed in GAS M18 strain H566 (strain CYT_F) (Streptococcus pyogenes (group A Streptococcus), serotype M1 strain 854). Briefly: cross-linking; live GAS M18 strains treated with 1% formaldehyde (10 min, room temperature), quenched with 250 mM glycine; protoplast preparations, SDS-PAGE, anti-FLAG blot.

Assay [2] deals with RocAM1 with a C-terminal FLAG tag, full length (amino acids 1 to 451), expressed in GAS M18 strain H566 (strain M1_F) (Streptococcus pyogenes (group A Streptococcus), serotype M1 strain 854). Described as above.
Assay [3] concerns the target RocAM3 with a C-terminal FLAG tag (amino acids 1 to 416), expressed in GAS M18 strain H566 (strain M3_F) (Streptococcus pyogenes (group A Streptococcus), serotype M3 strain 188). Described as above.
Assay [4] has as its target RocA_(FLAG) expressed from a single chromosomal copy in GAS M1 strain 854 (strain 854_chF) (Streptococcus pyogenes (group A Streptococcus), serotype M1 strain 854). Briefly: cross-linking; formaldehyde cross-linking with GAS M1 strain 854_chF (native expression level); RocA_(FLAG) affinity purified from the protoplast lysate for detection by anti-FLAG blot.

Where “and” joins values, the source holds several entries; their conditions need not be identical. Equal values may be shown once.

Usually stoichiometry N stands for a count of units in the complex or per binding partner.

Substance “RocA cytoplasmic domain (amino acids 226 to 451) with a C-terminal FLAG tag, expressed in GAS M18 strain H566 (strain CYT_F) (domain or fragment)” displayed a stoichiometry N in assay [1] of 2. For “RocAM1 with a C-terminal FLAG tag, full length (amino acids 1 to 451), expressed in GAS M18 strain H566 (strain M1_F) (natural protein)”, the stoichiometry N in assay [2] was 2 and 4. For the substance “RocAM3 with a C-terminal FLAG tag (amino acids 1 to 416), expressed in GAS M18 strain H566 (strain M3_F) (natural protein)”, in assay [3], the stoichiometry N is 2. For “RocA_(FLAG) expressed from a single chromosomal copy in GAS M1 strain 854 (strain 854_chF) (natural protein)”, the stoichiometry N in assay [4] was 2.
